In patent US6524826B1, “Polynucleotides encoding cortistatin polypeptides” (Human Genome Sciences, Inc., priority 1996, dated 2003):

Key:
CA1 neurons = test: Population Spike (PS) amplitudes in CA1 neurons in vivo; conditions: microiontophoretic application of 1 mg ml^−1
Text: (§1) For example, one can measure Cortistatin activity by manually depolarizing a CA1 neuron to about −65 mV (resting potential at about −70 mV) to elicit action potential firing. […] One can measure Population Spike (PS) amplitudes in CA1 neurons in vivo, by generating stimulus response curves and relating the PS amplitude monotonically to stimulus intensity tested at three response levels: threshold, half-maximal, and maximal. […] Another assay for polypeptides having Cortistatin activity is the effect of intracerebroventricular administration to male Sprague—Dawley rats, anesthetized with halothane, of the polypeptide in question on the sleep—wake cycle of the rat. An active polypeptide would increase the period of slow wave sleep and decrease REM sleep.

CA1 neuron = test: action potential firing of a manually depolarized CA1 neuron; assay type: cell-based; conditions: superfusion by 1 μM; CA1 neuron depolarized to about −65 mV
Text: as §1

B1: Human Cortistatin: Human Cortistatin polypeptide, brain neuropeptide; mature protein amino acid residues about 1 to about 86 in SEQ ID NO:2 (protein)
chain: MPLSPGLLLLLLSGATATAALPLEGGPTGRDSEHMQEAAGIRKSSLLTFLAWWFEWTSQASAGPLIGEEAREVARRQEGAPPQQSA
modifications: Human Cortistatin
B1 was tested, and the “PS amplitudes in CA1” value (CA1 neurons) was “significantly decrease PS amplitudes” and the action potential discharge (CA1 neuron) was “abolish the action potential discharge”.
